To fix the notation:
B1: R178A/H198P (protein, UniProt P0AEE3 1-355, looked up, variant R178A H198P)
Serine endoprotease DegS: MFVKLLRSVAIGLIVGAILLVAMPSLRSLNPLSTPQFDSTDETPASYNLAVRRAAPAVVNVYNRGLNTNSHNQLEIRTLGSGVIMDQRGYIITNKHVINDADQIIVALQDGRVFEALLVGSDSLTDLAVLKINATGGLPTIPINARRVPHIGDVVLAIGNPYNLGQTITQGIISATGAIGLNPTGRQNFLQTDASINPGNSGGALVNSLGELMGINTLSFDKSNDGETPEGIGFAIPFQLATKIMDKLIRDGRVIRGYIGIGGREIAPLHAQGGGIDQLQGIVVNEVSPDGPAANAGIQVNDLIISVDNKPAISALETMDQVAEIRPGSVIPVVVMRDDKQLTLQVTIQEYPATN
B2: D221A/H198P (protein, UniProt P0AEE3 1-355, looked up, variant D221A H198P)
Serine endoprotease DegS: B1 Serine endoprotease DegS with A178R, D221A
B3: Q187A/H198P (protein, UniProt P0AEE3 1-355, looked up, variant Q187A H198P)
Serine endoprotease DegS: B1 Serine endoprotease DegS with A178R, Q187A
B4: F220A/H198P (protein, UniProt P0AEE3 1-355, looked up, variant F220A H198P)
Serine endoprotease DegS: B1 Serine endoprotease DegS with A178R, F220A
B5: I179A/H198P (protein, UniProt P0AEE3 1-355, looked up, variant I179A H198P)
Serine endoprotease DegS: B1 Serine endoprotease DegS with A178R, I179A
B6: R178A: DegS variant R178A (protein)
chain: RSLNPLSTPQFDSTDETPASYNLAVRRAAPAVVNVYNRGLNTNSHNQLEIRTLGSGVIMDQRGYIITNKHVINDADQIIVALQDGRVFEALLVGSDSLTDLAVLKINATGGLPTIPINARRVPHIGDVVLAIGNPYNLGQTITQGIISATGAIGLNPTGRQNFLQTDASINHGNSGGALVNSLGELMGINTLSFDKSNDGETPEGIGFAIPFQLATKIMDKLIRDGRVIRGYIGIGGREIAPLHAQGGGIDQLQGIVVNEVSPDGPAANAGIQVNDLIISVDNKPAISALETMDQVAEIRPGSVIPVVVMRDDKQLTLQVTIQEYPATN
modifications: left off: His6, N-terminal, state not stated
B7: Q187A: DegS variant Q187A (protein)
chain: B6 chain with A152R, Q161A
modifications: left off: His6, N-terminal, state not stated
B8: I179A: DegS variant I179A (protein)
chain: B6 chain with A152R, I153A
modifications: left off: His6, N-terminal, state not stated
B9: D221A: DegS variant D221A (protein)
chain: B6 chain with A152R, D195A
modifications: left off: His6, N-terminal, state not stated
B10: F220A: DegS variant F220A (protein)
chain: B6 chain with A152R, F194A
modifications: left off: His6, N-terminal, state not stated
B11: T169A: DegS variant T169A (protein)
chain: B6 chain with T143A, A152R
modifications: left off: His6, N-terminal, state not stated
B12: F234A: DegS variant F234A (protein)
chain: B6 chain with A152R, F208A
modifications: left off: His6, N-terminal, state not stated
B13: L164A: DegS variant L164A (protein)
chain: B6 chain with L138A, A152R
modifications: left off: His6, N-terminal, state not stated
B14: P161A: DegS variant P161A (protein)
chain: B6 chain with P135A, A152R
modifications: left off: His6, N-terminal, state not stated
B15: Q191A: DegS variant Q191A (protein)
chain: B6 chain with A152R, Q165A
modifications: left off: His6, N-terminal, state not stated
B16: Y162A: DegS variant Y162A (protein)
chain: B6 chain with Y136A, A152R
modifications: left off: His6, N-terminal, state not stated
B17: T167V: DegS variant T167V (protein)
chain: B6 chain with T141V, A152R
modifications: left off: His6, N-terminal, state not stated
B18: N197A: DegS variant N197A (protein)
chain: B6 chain with A152R, N171A
modifications: left off: His6, N-terminal, state not stated
B19: I232A: DegS variant I232A (protein)
chain: B6 chain with A152R, I206A
modifications: left off: His6, N-terminal, state not stated

Numbering of substitutions follows the chain as printed. Names and notes keep the numbering of the source.

For the first experiment, the system named is periplasmic domain of RseA. The experiment in a line: Cleavage of 35S-labeled RseA periplasmic domain by DegS variants. The class given is biochemical, E. coli. As to conditions: H198P background; with YYF; % of H198P parent.
For the molecule B1, the “YYF-stimulated cleavage activity relative to H198P parental enzyme” value was 9–24%. For B2, the “YYF-stimulated cleavage activity relative to H198P parental enzyme” value is reported as no less than 65%. As for B3, the “YYF-stimulated cleavage activity relative to H198P parental enzyme” value is given as no less than 65%. Turning to B4, the “YYF-stimulated cleavage activity relative to H198P parental enzyme” value is listed as 9–24%. As to B5, the “YYF-stimulated cleavage activity relative to H198P parental enzyme” value was no less than 65%.

Still in this experiment, the particulars now being: WT background; compared to wild-type DegS.
Take B6: the “YYF-stimulated cleavage activity, in words” value is “almost no cleavage activity”.

On to B7, for which the “YYF-stimulated cleavage activity, in words” value was “reduced YYF-stimulated cleavage activity compared to wild-type DegS”. Turning to B8, the “YYF-stimulated cleavage activity, in words” value was “reduced YYF-stimulated cleavage activity compared to wild-type DegS”. Regarding B9, the “YYF-stimulated cleavage activity, in words” value is given as “reduced YYF-stimulated cleavage activity compared to wild-type DegS”.

Consider B10, for which the “YYF-stimulated cleavage activity, in words” value was “almost no cleavage activity”.

Still in this experiment, the particulars now being: WT background; with YYF; % of wild-type activity.
Regarding B11, the “YYF-stimulated cleavage activity relative to wild type” value was “less than 2%”. On the same count and under the same terms, for B12 the value was “less than 2%”. On the same count and under the same terms, for B13 the value was “less than 2%”.

For B14, the “YYF-stimulated cleavage activity relative to wild type” value was “less than 2%”. Turning to B15, the “YYF-stimulated cleavage activity relative to wild type” value is given as “less than 2%”.

With B16, the “YYF-stimulated cleavage activity relative to wild type” value was “less than 2%”. For B17, the “YYF-stimulated cleavage activity relative to wild type” value is “less than 2%”. Take B18: the “YYF-stimulated cleavage activity relative to wild type” value is reported as “less than 2%”.

In the case of B19, the “YYF-stimulated cleavage activity relative to wild type” value is reported as “less than 2%”.
